Measured values as given in patent publication US20230192820A1 (published 2023).

B1: MAb362 (antibody, V domains shown)
VH: QVQLVESGGGVVQPGRSLRLSCAASGFSFSSYGMHWVRQAPGKGLEWVAVIWYDGSDKYYADSVKGRFTISRDNSKNTLYLQLNSLRAEDTAIYYCARERYFDWIFDFWGQGTLVTVSS
VL: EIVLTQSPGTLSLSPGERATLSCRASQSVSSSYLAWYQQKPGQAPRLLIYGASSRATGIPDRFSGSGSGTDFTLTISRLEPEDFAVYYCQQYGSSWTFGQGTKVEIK
B2: MAb362 IgG1 (antibody, V domains shown)
VH: B1 VH
VL: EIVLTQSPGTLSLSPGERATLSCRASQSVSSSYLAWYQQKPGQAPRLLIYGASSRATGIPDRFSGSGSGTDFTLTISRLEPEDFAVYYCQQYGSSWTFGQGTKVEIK
B3: MAb362 IgA1 (monomeric) (antibody, V domains shown)
VH: B1 VH
VL: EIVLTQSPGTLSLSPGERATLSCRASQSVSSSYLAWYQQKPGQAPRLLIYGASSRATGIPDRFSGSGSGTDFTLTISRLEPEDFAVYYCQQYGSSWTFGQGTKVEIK

Key:
[1] = biological target: SARS-CoV-2 S protein S1 subunit (amino acids 1-604), Myc/His tagged (SARS-CoV-2, UniProt P0DTC2 14-604)
[2] = biological target: SARS-CoV-2 spike (S) protein on virus or pseudovirus particles (SARS-CoV-2, UniProt P0DTC2 14-1273); assay: cell-based or functional assay
[3] = biological target: SARS-CoV-2 S protein RBD (amino acids 319-541) (SARS-CoV-2, UniProt P0DTC2 319-541)
[4] = biological target: SARS-CoV S protein RBD (amino acids 270-510) (SARS-CoV (Urbani strain), UniProt P59594 270-510)

Binder	EC50 [1] [nM]	plaque reduction neutralization test (PRNT), EC50 [2] [µg/mL]	Kd [3] [nM]	Kd [4] [nM]	neutralization of SARS-CoV-2 pseudovirus, IC50 [2] [µg/mL]
B1	~40	~5	–	–	–
B2	–	–	13	1.3	58.7
B3	–	–	0.3	1.4	1.26
